Values belong to the substance of their own block, whether it stands above or below them.
What was measured:
[1] = target: His-MBP-eYFP-PRDM9^Cst ZnF (Mus musculus castaneus (CAST/EiJ strain)); experiment: native gel or EMSA; multimer assay II: construct bound to a 75-bp DNA (Hlx1 for PRDM9^Cst, Pbx1 for PRDM9^Dom2), native gel; MW of the lower shift read against a ladder of free DNA (75-740 bp) and divided by the monomer's MW; four replicates; crude bacterial lysates or in vitro expressed protein
[2] = target: His-PRDM9^Cst ZnF1-11 (Mus musculus castaneus (CAST/EiJ strain)); experiment: native gel or EMSA; multimer assay I: construct bound to single-Hlx1 and tandem-Hlx1 DNA fragments of rising length, native 5% polyacrylamide gel; MW of the second complex (supershift) read from the regression of the lower shifts and divided by the monomer's MW; crude bacterial lysates or in vitro expressed protein
[3] = target: His-MBP-eYFP-PRDM9^Dom2 ZnF (Mus musculus domesticus (C57BL/6J strain)); experiment: native gel or EMSA; multimer assay II: construct bound to a 75-bp DNA (Hlx1 for PRDM9^Cst, Pbx1 for PRDM9^Dom2), native gel; MW of the lower shift read against a ladder of free DNA (75-740 bp) and divided by the monomer's MW; four replicates; crude bacterial lysates or in vitro expressed protein
[4] = target: His-eYFP-PRDM9^Cst ZnF (Mus musculus castaneus (CAST/EiJ strain)); experiment: native gel or EMSA; multimer assay I: construct bound to single-Hlx1 and tandem-Hlx1 DNA fragments of rising length, native 5% polyacrylamide gel; MW of the second complex (supershift) read from the regression of the lower shifts and divided by the monomer's MW; crude bacterial lysates or in vitro expressed protein
[5] = target: MBP-ZnF-Cst (Mus musculus castaneus (CAST/EiJ)) (UniProt Q96EQ9); experiment: EMSA; conditions: 10 mM Tris pH 7.5, 50 mM KCl, 50 uM ZnCl2, 0.05% NP-40 (1x TKZN), usually 50 ng/ul polydIdC, 60 min at RT, 5% native PAGE in 0.5x TBE
[6] = target: His-Halo-PRDM9^Cst ZnF1-11 (Mus musculus castaneus (CAST/EiJ strain)); experiment: native gel or EMSA; multimer assay II as a2, with the semipure (ion-exchange) Halo-tagged construct; the shifted band was shown by MALDI-TOF mass spectrometry to hold mainly PRDM9 peptides
[7] = target: His-PRDM9^Cst ZnF2–6 (Mus musculus castaneus (CAST/EiJ strain)); experiment: native gel or EMSA; multimer assay I: construct bound to single-Hlx1 and tandem-Hlx1 DNA fragments of rising length, native 5% polyacrylamide gel; MW of the second complex (supershift) read from the regression of the lower shifts and divided by the monomer's MW; crude bacterial lysates or in vitro expressed protein
[8] = target: His-PRDM9^Cst ZnF2–6 (Mus musculus castaneus (CAST/EiJ strain)); experiment: native gel or EMSA; multimer assay II: construct bound to a 75-bp DNA (Hlx1 for PRDM9^Cst, Pbx1 for PRDM9^Dom2), native gel; MW of the lower shift read against a ladder of free DNA (75-740 bp) and divided by the monomer's MW; four replicates; crude bacterial lysates or in vitro expressed protein
[9] = target: His-eYFP-PRDM9^Cst ZnF2-11 (Mus musculus castaneus (CAST/EiJ strain)); experiment: native gel or EMSA; multimer assay I: construct bound to single-Hlx1 and tandem-Hlx1 DNA fragments of rising length, native 5% polyacrylamide gel; MW of the second complex (supershift) read from the regression of the lower shifts and divided by the monomer's MW; crude bacterial lysates or in vitro expressed protein
[10] = target: His-eYFP-PRDM9^Cst ZnF2-11 (Mus musculus castaneus (CAST/EiJ strain)); experiment: native gel or EMSA; multimer assay II: construct bound to a 75-bp DNA (Hlx1 for PRDM9^Cst, Pbx1 for PRDM9^Dom2), native gel; MW of the lower shift read against a ladder of free DNA (75-740 bp) and divided by the monomer's MW; four replicates; crude bacterial lysates or in vitro expressed protein
[11] = target: His-PRDM9^Cst ZnF (Mus musculus castaneus (CAST/EiJ strain)); experiment: native gel or EMSA; multimer assay I: construct bound to single-Hlx1 and tandem-Hlx1 DNA fragments of rising length, native 5% polyacrylamide gel; MW of the second complex (supershift) read from the regression of the lower shifts and divided by the monomer's MW; crude bacterial lysates or in vitro expressed protein
[12] = target: His-eYFP-PRDM9^Cst (full-length PRDM9^Cst with KRAB, SSXRD, PR/SET and ZnF domains) (Mus musculus castaneus (CAST/EiJ strain)); experiment: native gel or EMSA; multimer assay II: construct bound to a 75-bp DNA (Hlx1 for PRDM9^Cst, Pbx1 for PRDM9^Dom2), native gel; MW of the lower shift read against a ladder of free DNA (75-740 bp) and divided by the monomer's MW; four replicates; crude bacterial lysates or in vitro expressed protein
[13] = target: His-PRDM9^Cst ZnF2-8 (Mus musculus castaneus (CAST/EiJ strain)); experiment: native gel or EMSA; multimer assay I: construct bound to single-Hlx1 and tandem-Hlx1 DNA fragments of rising length, native 5% polyacrylamide gel; MW of the second complex (supershift) read from the regression of the lower shifts and divided by the monomer's MW; crude bacterial lysates or in vitro expressed protein
[14] = target: His-PRDM9^Cst ZnF2-8 (Mus musculus castaneus (CAST/EiJ strain)); experiment: native gel or EMSA; multimer assay II: construct bound to a 75-bp DNA (Hlx1 for PRDM9^Cst, Pbx1 for PRDM9^Dom2), native gel; MW of the lower shift read against a ladder of free DNA (75-740 bp) and divided by the monomer's MW; four replicates; crude bacterial lysates or in vitro expressed protein
[15] = target: His-eYFP-PRDM9^Cst ZnF1-11 (Mus musculus castaneus (CAST/EiJ strain)); experiment: native gel or EMSA; multimer assay I: construct bound to single-Hlx1 and tandem-Hlx1 DNA fragments of rising length, native 5% polyacrylamide gel; MW of the second complex (supershift) read from the regression of the lower shifts and divided by the monomer's MW; crude bacterial lysates or in vitro expressed protein
[16] = target: His-eYFP-PRDM9^Cst ZnF1-11 (Mus musculus castaneus (CAST/EiJ strain)); experiment: native gel or EMSA; multimer assay II: construct bound to a 75-bp DNA (Hlx1 for PRDM9^Cst, Pbx1 for PRDM9^Dom2), native gel; MW of the lower shift read against a ladder of free DNA (75-740 bp) and divided by the monomer's MW; four replicates; crude bacterial lysates or in vitro expressed protein

stoichiometry N [1]: 3
Substance: His-MBP-eYFP-PRDM9^Cst ZnF (domain or fragment)

stoichiometry N [2]: 3
Substance: His-PRDM9^Cst ZnF1-11 (domain or fragment)

stoichiometry N [3]: 3
Substance: His-MBP-eYFP-PRDM9^Dom2 ZnF (domain or fragment)

stoichiometry N [4]: 3
Substance: His-eYFP-PRDM9^Cst ZnF (domain or fragment)

Substance: AACCCTGAGCTGCCTAAAGGTCAAATAGTGTGCAGACTTGGACCCTGCCCTTTCTTTAATAGTGTGCAGACTTGGACCCTGCCCTTTCTTTCTGCTGTGAATACCAGAGGCACA (double strand) [tandem-Hlx1 114 bp]
Kd ([5]; sum of lower shift and supershift, two complexes): 35 nM

stoichiometry N [6]: 3
Substance: His-Halo-PRDM9^Cst ZnF1-11 (domain or fragment)

stoichiometry N [7]: 2.9 | stoichiometry N [8]: 2.9
Substance: His-PRDM9^Cst ZnF2–6 (domain or fragment)

stoichiometry N [9]: 2.7 | stoichiometry N [10]: 3
Substance: His-eYFP-PRDM9^Cst ZnF2-11 (domain or fragment)

stoichiometry N [11]: 3
Substance: His-PRDM9^Cst ZnF (domain or fragment)

Substance: GTGGGAGGAGATGGTGGGTGAATAGTGTGCAGACTTGGACCCTGCCCTTTCTTTACGCATTCCACTAACCATGGG (double strand) [single-Hlx1 75 bp]
Kd ([5]; 60 min incubation): 48 nM

stoichiometry N [12]: 3
Substance: His-eYFP-PRDM9^Cst (full-length PRDM9^Cst with KRAB, SSXRD, PR/SET and ZnF domains) (natural protein)

stoichiometry N [13]: 2.7 | stoichiometry N [14]: 2.5
Substance: His-PRDM9^Cst ZnF2-8 (domain or fragment)

stoichiometry N [15]: 3.8 | stoichiometry N [16]: 3.5
Substance: His-eYFP-PRDM9^Cst ZnF1-11 (domain or fragment)
